These results are taken from patent publication US20220372154A1 (APEXIGEN, published 2022).

Substitutions are numbered along the chain they refer to.

Assay [1] concerns the target T1, human TNFR2 expressed on cells (human, UniProt P20333 23-461).
T1 construct: whole, on cells; also called hTNFR2 (cell); CHO-TNFR2
T1 sequence (looked up): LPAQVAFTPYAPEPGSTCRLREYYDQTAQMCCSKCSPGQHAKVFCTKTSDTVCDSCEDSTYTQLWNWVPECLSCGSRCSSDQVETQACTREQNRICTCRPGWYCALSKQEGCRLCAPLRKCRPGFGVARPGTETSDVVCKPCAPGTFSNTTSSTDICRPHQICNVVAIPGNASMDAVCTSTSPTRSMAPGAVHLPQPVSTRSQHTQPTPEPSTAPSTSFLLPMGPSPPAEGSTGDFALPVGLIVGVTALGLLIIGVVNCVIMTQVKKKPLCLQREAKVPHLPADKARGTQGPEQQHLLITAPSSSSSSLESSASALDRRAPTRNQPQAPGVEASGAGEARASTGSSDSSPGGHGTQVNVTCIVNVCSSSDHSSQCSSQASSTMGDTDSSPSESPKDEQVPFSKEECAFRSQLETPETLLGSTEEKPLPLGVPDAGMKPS
In words: blocking of biotinylated TNF-α on TNFR2-CHO cells, flow cytometry. Here is the method: TNFR2-overexpressing CHO cells were plated at 100,000 cells per well. Cells were incubated with the indicated antibodies for 30 minutes on ice. […] Cells were analyzed using Cytoflex or MACSQuant flow cytometer. Assay was repeated twice.

Assay [2] concerns the target T2, cynomolgus TNFR2-His tagged protein (cynomolgus, UniProt A0A2K5VET2 132-366).
T2 construct: also called Cyno TNFR2; cynomolgus TNFR2 protein; not shown: His tag
T2 sequence: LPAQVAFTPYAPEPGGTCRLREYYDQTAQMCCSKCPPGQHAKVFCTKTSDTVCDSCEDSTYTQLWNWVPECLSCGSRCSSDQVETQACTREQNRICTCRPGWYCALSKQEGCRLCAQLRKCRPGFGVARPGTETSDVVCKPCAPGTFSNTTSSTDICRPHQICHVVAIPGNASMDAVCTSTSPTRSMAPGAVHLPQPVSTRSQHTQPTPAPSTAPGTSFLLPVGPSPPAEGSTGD
Briefly: ELISA, cynomolgus TNFR2. In general terms: In an ELISA, binding on a coated surface is turned into a signal by an enzyme label.

The target in assay [3] is T3, TNFR-Fc (UniProt P20333 23-257, limits assumed).
T3 construct: Printed only as TNFR-Fc; not shown: Fc part
T3 sequence (looked up): T2 sequence with G16S, P36S, Q117P, H164N, A210E, G216S, V223M
Briefly: TNF-α blocking ELISA (soluble).

For assay [4], the target named is T4, human TNFR2-His tagged protein (soluble) (human, UniProt P20333 23-257).
T4 construct: also called hTNFR2 (soluble); soluble TNFR2-His; not shown: His tag
T4 sequence (looked up): T2 sequence with G16S, P36S, Q117P, H164N, A210E, G216S, V223M
In words: ELISA, soluble human TNFR2.

Assay [5] deals with T5, human TNFR1-His tagged protein (human, UniProt P19438 30-211, limits assumed).
T5 construct: also called soluble human TNFR1; not shown: His tag
T5 sequence (looked up): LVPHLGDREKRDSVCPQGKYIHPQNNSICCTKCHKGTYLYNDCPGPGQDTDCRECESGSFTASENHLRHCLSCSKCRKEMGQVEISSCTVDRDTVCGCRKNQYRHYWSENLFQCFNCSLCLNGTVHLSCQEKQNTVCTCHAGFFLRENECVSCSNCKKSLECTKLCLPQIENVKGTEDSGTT
Briefly: ELISA on coated TNFR1-His (1 ug/mL), OD 450 nm. Here is the method:
TNFR1-His tagged protein was coated on ELISA plates at 1 μg/mL at 4° C. overnight. Plates were washed, blocked, and antibodies were added at indicated concentrations for 1 hour at RT. Antibodies were washed and detected with anti-human IgG HRP for 1 hour. Assay was developed using TMB substrate for 10 minutes.

The target of assay [6] is T1, human TNFR2 expressed on cells. In words: flow cytometry, cell-expressed human TNFR2.
Assay [7] has the same target. Briefly: cell binding on TNFR2-overexpressing (OE) cells.
Assay [8] has as its target T2, cynomolgus TNFR2-His tagged protein. Briefly: ELISA on coated cynomolgus TNFR2-His. In short, it runs like this:
(§1)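 TNFR2-His ELISAs: human or cynomolgus protein coated at 1 μg/mL overnight at 4 °C, BSA-blocked, antibodies 1 h RT, anti-human HRP, TMB 3–5 min. Flow: 200,000 human TNFR2-CHO cells, antibody 1 h, anti-human IgG BV421 20 min. Blocking ELISA: TNFR-Fc coated 1 ug/mL, antibodies 1 h RT, TMB 5–7 min.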

Assay [9] addresses T4, human TNFR2-His tagged protein (soluble). In words: ELISA on coated human TNFR2-His. In short, it runs like this: as §1
Assay [10] has as its target T6, TNFR2 PLAD or CRD1 peptide (aa 17-54 of mature TNFR2) (human).
T6 construct: Range counted on mature TNFR2
T6 peptide: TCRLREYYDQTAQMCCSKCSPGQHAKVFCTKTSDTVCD
Briefly: peptide-binding ELISA (potential peptide bin).

For another assay, the target named is T7, soluble mouse TNFR2 (mouse, UniProt P25119 23-258, limits assumed).
T7 sequence (looked up): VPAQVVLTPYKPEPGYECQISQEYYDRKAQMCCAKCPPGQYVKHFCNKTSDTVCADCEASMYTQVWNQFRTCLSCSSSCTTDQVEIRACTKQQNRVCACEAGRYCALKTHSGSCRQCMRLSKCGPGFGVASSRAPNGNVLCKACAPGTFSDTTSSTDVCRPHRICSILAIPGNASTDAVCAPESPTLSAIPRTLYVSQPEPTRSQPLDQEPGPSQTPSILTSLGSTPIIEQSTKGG
Briefly: binding screen on soluble mouse TNFR2 (mouse cross-reactivity).

Assay [11] has as its target T3, TNFR-Fc. Briefly: TNF-α blocking ELISA on coated TNFR-Fc. In short, it runs like this: as §1
Assay [12] addresses T1, human TNFR2 expressed on cells. Briefly: flow cytometry on CHO cells expressing human TNFR2. Summed up:
as §1

B1: humanized antibody h600_HB_11D7.1 (antibody, V domains shown)
VH: EVQLVESGGGLVQPGGSLRLSCAASGFDFSRYYMSWVRQAPGKGLEWVGYIDPIFGNTYYASWVNGRFTISSDNAKNSLYLQMNSLRAEDTAVYYCARDGDAGYDGYGYGTDLWGQGTLVTVSS
VL: DIQMTQSPSSLSASVGDRVTITCQASENIYSGLAWYQQKPGKVPKLLIVSAFTLASGVPSRFSGSGSGTDFTLTISSLQPEDVATYYCQTYYYGSVTYFNAFGGGTKVEIK
In the case of B1, the IC50 in assay [1] was 0.323 nM; with TNFR-Fc [3], 2.96 nM. Besides, the EC50 in assay [2] was determined as 0.054 nM; in assay [4], 0.091 nM; in assay [6], 0.239 nM. Besides, the binding result in [5] is “binds”. Moreover, in assay [7], the Kd worked out at 0.201 nM.

B2: chimeric antibody clone 6 (rab600_23_6) (antibody, V domains shown)
VH: QEQLKESGGRLVTPGTPLTLTCTASGFSLSSYYVSWVRQAPGKGLEWIGIIHSDGSIYYATWAKGLFTISRTSTTVDLKATSLTTEDTATYFCVRGYPGYYTSTFNRLDLWGQGTLVTVSS
VL: AYDMTQTPASVEVAVGGTVTIKCQASQTISNELSWYQQKSGQPPKLLIYRASTLASGVPSRFSGSGSGTEFTLTISGVECDDAATYYCQQGYTTNNVDNLFGGGTEVVVK
For B2, the EC50 stood at 0.104 nM in assay [8], 0.147 nM in assay [9] and 0.277 nM in assay [12]. In addition, the figures for the binding result (in [10]; with soluble mouse TNFR2) were “binds” and “no binding”, respectively. In addition, it took 5.63 nM to reach half-maximal inhibition with TNFR-Fc [11] (IC50).

B3: chimeric antibody clone 81 (rab600_23_81) (antibody, V domains shown)
VH: QSLEESGGRLVTPGTPLTLTCTASGFSLSNYYVSWVRQAPGKGLEWIGIIETGGNLYYASWAKGRFSLSKTSTTVDLKITSPTAEDTATYFCVRGYPGYYTHTFNRLDLWGQGTLVTVSS
VL: B2 VL with Q27E, T28S, S30A, Q38R, S63K, E70Q, N95I, V97I
Regarding B3, the EC50 came to 4.04 nM in assay [8], 7.39 nM in [9] and 9.44 nM in assay [12]. In addition, the binding result is recorded as “binds” in assay [10] and “no binding” with soluble mouse TNFR2.

B4: humanized antibody clone 25-31 (h600_24_31) (antibody, V domains shown)
VH: EVQLVESGGGLVQPGGSLRLSCAASGFSLSSYDMSWVRQAPGKGLEWVGYIWSSGSAYYATWAEGRFTISRDNSKNTLYLQMNSLRAEDTAVYYCARRYVGSSYDTWGQGTLVTVSS
VL: DIQMTQSPSSLSASVGDRVTITCQSSQSVSSNNYLSWYQQKPGKAPKLLIYAASYLASGVPSRFSGSGSGTDFTLTISSLQPEDFATYYCLGDYDNDIDHAFGGGTKVEIK
notes: its heavy-chain CDRs are those of rab600_25_31
For B4, the EC50 in assay [2] came out at 1.86 nM; in assay [4], 0.72 nM; in assay [6] it was 12.1 nM. The binding result in assay [5] was “binds”. Also, the Kd in assay [7] is 12.1 nM.

A word on the IC50: it is the concentration needed to halve the response being measured. Low readings indicate inhibition by little substance, high ones a need for much substance. What is called EC50 is the concentration that produces a half-maximal response. Higher therefore signals lower potency in that assay. The term Kd denotes the constant that tells how readily two partners part at equilibrium. High values mean weaker binding, low ones tighter binding.
